Article PMC4434903
Blank lines part the entries; values can stand above or below the molecule they belong to.

Assays:
[1] = biological target: full length TOP1-His (UniProt Q94AM1); assay: SEC; Superdex 200 gel filtration of cobalt-column purified His-tagged protein, no DTT; apparent MW by interpolation with conalbumin and aldolase; peak areas at A280
[2] = biological target: T1, TOP2 fused to the N-terminal or the C-terminal half of Renilla luciferase, Q949P2; assay: split reporter (BiFC, NanoBiT); split Renilla luciferase complementation in Arabidopsis protoplasts co-transformed with NLuc and CLuc fusions; luminescence read 12-16 h after transformation; with or without 100 or 200 uM SA (3 h); conditions: remark: other sources report otherwise
T1 chain: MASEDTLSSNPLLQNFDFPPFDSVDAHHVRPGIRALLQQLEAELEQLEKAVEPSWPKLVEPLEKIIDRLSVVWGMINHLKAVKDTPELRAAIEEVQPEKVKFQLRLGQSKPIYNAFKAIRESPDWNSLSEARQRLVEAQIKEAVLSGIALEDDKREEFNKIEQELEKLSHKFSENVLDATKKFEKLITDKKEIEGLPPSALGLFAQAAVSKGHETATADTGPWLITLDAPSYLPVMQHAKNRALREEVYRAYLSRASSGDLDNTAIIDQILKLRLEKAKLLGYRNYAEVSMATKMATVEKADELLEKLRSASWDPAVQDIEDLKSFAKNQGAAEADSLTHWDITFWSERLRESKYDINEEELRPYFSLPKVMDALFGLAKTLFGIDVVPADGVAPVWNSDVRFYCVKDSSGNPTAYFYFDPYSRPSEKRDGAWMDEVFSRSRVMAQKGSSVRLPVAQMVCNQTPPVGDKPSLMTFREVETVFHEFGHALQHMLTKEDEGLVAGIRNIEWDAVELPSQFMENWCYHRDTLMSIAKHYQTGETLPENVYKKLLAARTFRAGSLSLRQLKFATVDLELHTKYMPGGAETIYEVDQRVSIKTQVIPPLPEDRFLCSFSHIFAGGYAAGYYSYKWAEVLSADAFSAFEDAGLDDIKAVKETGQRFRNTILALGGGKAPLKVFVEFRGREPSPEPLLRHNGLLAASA

[3] = biological target: T2, full length TOP2-His, Q949P2; assay: SEC; Superdex 200 gel filtration of cobalt-column purified His-tagged protein, no DTT; apparent MW by interpolation with conalbumin and aldolase; peak areas at A280; conditions: remark: other sources report otherwise
T2 chain: T1 chain

stoichiometry N [1]: 2
Molecule: full length TOP1-His (from UniProt Q94AM1 83-791) (enzyme)

fold luminescence intensity over TOP1-TOP1 or TOP1-TOP2 [2]: 3.4 fold
B1: TOP2 fused to the N-terminal or the C-terminal half of Renilla luciferase, Q949P2 1-701 (enzyme)
chain: T1 chain

stoichiometry N [3]: 2
B2: full length TOP2-His, Q949P2 1-701 (enzyme)
chain: T1 chain
